Measurements published in the supplement of paper PMC11136658.

Tested on: peptide library, one residue held at a place counted from the Y acceptor
Assay: relative phosphorylation of the sub-library (ratio to the mean residue at this position); higher = residue favoured
Method in brief: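 Biotinylated Tyr-centred peptide library mixtures, each fixing one residue at one position from −5 to +5, were incubated with purified recombinant kinases in 384-well plates for 90 min with 50 μM ATP plus γ-32P-ATP. Streptavidin membranes captured the peptides, which were rinsed and quantified by phosphorimaging and ImageQuant. At each position, intensities were divided by the sum of the 18 randomized residues (16 for the Ser/Thr-free library) and multiplied by that number. Each value is phosphorylation relative to the mean randomized residue.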

Sequence of ITK, construct: aa352-end, human (Q08881 352-620, looked up): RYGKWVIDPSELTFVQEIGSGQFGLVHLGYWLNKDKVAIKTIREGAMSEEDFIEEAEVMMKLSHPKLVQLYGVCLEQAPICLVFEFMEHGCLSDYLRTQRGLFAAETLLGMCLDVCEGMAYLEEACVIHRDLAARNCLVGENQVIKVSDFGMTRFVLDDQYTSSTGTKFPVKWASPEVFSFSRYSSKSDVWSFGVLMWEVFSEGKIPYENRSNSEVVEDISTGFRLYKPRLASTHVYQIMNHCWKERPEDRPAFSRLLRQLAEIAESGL
Sequence of IRR, construct: aa945-end, human (P14616 945-1297, looked up): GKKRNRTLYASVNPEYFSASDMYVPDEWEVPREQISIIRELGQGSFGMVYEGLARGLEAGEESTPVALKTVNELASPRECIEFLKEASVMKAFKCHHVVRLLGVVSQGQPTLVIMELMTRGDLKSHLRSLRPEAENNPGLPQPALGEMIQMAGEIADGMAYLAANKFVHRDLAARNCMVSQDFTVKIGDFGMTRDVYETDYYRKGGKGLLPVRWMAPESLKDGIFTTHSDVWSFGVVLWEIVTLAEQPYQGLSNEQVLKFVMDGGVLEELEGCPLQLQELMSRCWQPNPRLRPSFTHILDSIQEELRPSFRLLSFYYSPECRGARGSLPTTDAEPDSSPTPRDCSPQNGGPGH

IRR, construct: aa945-end, human (from UniProt P14616)
relative phosphorylation
Details	at +1	at +2	at +3	at +4	at +5	at -1	at -2	at -3	at -4	at -5
A fixed	1.2	0.697	0.453	0.79	0.702	0.948	1.06	0.957	0.997	1.03
D fixed	0.718	0.923	0.342	1.35	0.583	2.42	1.56	1.39	1.41	1.13
E fixed	1.07	1.49	0.322	1.26	0.575	1.66	1.53	1.53	1.28	1.03
F fixed	1.4	1.19	1.51	1.06	2.09	0.666	0.685	0.903	0.854	0.904
G fixed	0.637	0.368	0.424	0.931	0.838	0.608	1.14	0.972	1.08	0.998
H fixed	1.85	1.07	1.37	1.24	1.21	1.08	0.901	1.13	1.07	1.09
I fixed	0.849	0.881	1.73	0.828	1.03	0.842	0.63	0.618	0.772	0.87
K fixed	0.399	0.686	0.433	0.906	0.693	0.35	0.977	0.864	1.05	1.28
L fixed	1.19	1.32	1.6	0.807	0.985	0.916	0.705	0.717	0.742	0.825
M fixed	2.18	1.44	2.06	0.975	1.06	0.75	0.803	0.779	0.853	0.84
N fixed	0.618	0.911	0.484	1.14	0.844	2.07	1.37	1.45	1.14	1.13
P fixed	0.423	0.796	0.374	0.892	1.37	1.07	1.24	0.834	0.957	0.978
Q fixed	0.998	1.02	0.546	1.04	0.867	0.911	1.18	1.24	1.19	1.12
R fixed	0.353	0.796	0.665	0.918	1.06	0.386	0.992	1.16	1.05	1.19
S fixed	0.835	0.771	0.509	0.977	0.705	0.856	1.06	1.05	0.847	0.88
T fixed	0.867	0.801	0.741	1.07	0.781	0.945	1.05	0.996	0.876	0.803
V fixed	0.906	0.945	1.43	0.85	0.723	0.757	0.651	0.647	0.776	0.806
W fixed	1.21	1.47	2.26	1.01	1.35	0.576	0.576	0.797	0.781	0.766
pThr fixed	1.57	1.06	0.323	0.922	0.584	1.66	1.23	1.27	1.2	1.07
pTyr fixed	1.06	1.64	0.393	1.12	0.513	2.83	1.35	1.26	0.928	1.02

ITK, construct: aa352-end, human (from UniProt Q08881)
relative phosphorylation
Details	at +1	at +2	at +3	at +4	at +5	at -1	at -2	at -3	at -4	at -5
A fixed	1.81	1.06	0.772	0.857	1.11	0.551	1.01	0.947	1.03	0.997
D fixed	0.732	0.669	0.309	0.622	0.886	0.754	1.41	1.36	1.33	1.21
E fixed	1.51	1.13	0.274	0.821	0.792	0.709	1.51	1.52	1.38	1.08
F fixed	0.572	1.07	1.85	0.763	0.705	1.81	0.627	0.793	0.672	0.935
G fixed	1.08	0.639	0.788	1.26	1.1	0.384	1.43	1.21	1.17	1.13
H fixed	0.606	0.801	2.11	0.96	0.926	0.991	0.812	1.03	1.01	1.13
I fixed	1.51	1.12	0.913	0.996	0.332	2.5	0.548	0.511	0.759	0.718
K fixed	0.337	0.697	0.722	1.34	1.39	0.291	0.703	0.694	0.953	1.06
L fixed	0.606	0.908	0.832	0.771	0.72	2.16	0.969	0.666	0.743	0.757
M fixed	1.17	0.976	1.06	1.04	1.24	1.22	0.645	0.752	0.816	0.896
N fixed	0.361	1.06	0.757	0.846	1.06	0.585	1.33	1.39	1.15	1.24
P fixed	0.172	0.791	0.868	1.08	1.49	0.48	1.43	1.27	1.15	1.07
Q fixed	1.03	0.901	0.885	1.19	1.15	0.648	1.24	1.16	1.39	1.24
R fixed	0.432	0.987	1.41	1.32	1.55	0.308	0.64	0.774	1.05	1.14
S fixed	1.4	1.22	0.997	1.07	1.14	0.489	1.28	1.31	1.05	1.01
T fixed	1.36	1.45	0.767	1.12	1.01	1.19	1.05	1.1	0.807	0.902
V fixed	2.08	1.24	1.04	1.16	0.772	1.57	0.764	0.752	0.84	0.797
W fixed	1.23	1.27	1.65	0.785	0.634	1.36	0.605	0.759	0.706	0.692
pThr fixed	2.18	2.7	0.354	0.462	0.524	1.68	1.08	0.871	1.02	0.887
pTyr fixed	1.11	3.73	0.518	0.754	0.65	1.48	1.02	1.2	1.23	2.07
